Measurements from publication doi:10.1101/2025.04.22.649955.

Experiments:
[1] = target: SynGAP[PSD95] condensates (mCherry-SynGAP with PSD95-mGFP) (human | rat) (UniProt P31016)
UniProt P31016, sequence (P31016 whole entry, looked up): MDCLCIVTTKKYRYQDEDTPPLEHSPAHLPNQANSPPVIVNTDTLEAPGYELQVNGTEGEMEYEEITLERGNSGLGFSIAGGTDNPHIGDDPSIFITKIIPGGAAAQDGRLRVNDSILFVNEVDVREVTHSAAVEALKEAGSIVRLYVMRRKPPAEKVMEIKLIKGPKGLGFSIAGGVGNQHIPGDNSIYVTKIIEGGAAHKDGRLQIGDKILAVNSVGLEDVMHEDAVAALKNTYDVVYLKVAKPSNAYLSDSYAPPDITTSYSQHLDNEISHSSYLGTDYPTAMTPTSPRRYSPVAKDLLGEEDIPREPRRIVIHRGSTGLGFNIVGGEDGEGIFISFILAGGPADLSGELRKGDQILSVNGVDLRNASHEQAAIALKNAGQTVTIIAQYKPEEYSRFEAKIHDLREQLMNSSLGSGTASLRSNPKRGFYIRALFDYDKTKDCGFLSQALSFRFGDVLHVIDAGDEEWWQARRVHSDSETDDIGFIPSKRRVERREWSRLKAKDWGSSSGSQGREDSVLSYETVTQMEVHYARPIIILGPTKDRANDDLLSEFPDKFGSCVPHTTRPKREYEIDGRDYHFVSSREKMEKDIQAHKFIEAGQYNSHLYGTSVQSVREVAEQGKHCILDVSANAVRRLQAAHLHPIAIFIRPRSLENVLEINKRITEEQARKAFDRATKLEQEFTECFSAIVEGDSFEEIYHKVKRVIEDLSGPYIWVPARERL

“Halo7-tagged wild-type Neuroligin1 (from UniProt Q99K10 46-843) (receptor)” gave a fold of the fraction of the τ2 dwell-lifetime component against mNlg1 [1] of 2.5 fold.
GluA1(ΔNTD)-TARP2 showed a percent of molecules as dimers (GluA1(ΔNTD)-TARP2) of 45%, a percent of molecules as monomers (GluA1(ΔNTD)-TARP2) of 41% and a percent of molecules as tetramers (GluA1(ΔNTD)-TARP2) of 14%.
For GluA1-TARP2, the percent of molecules as dimers (GluA1-TARP2) was 39%, the percent of molecules as monomers (GluA1-TARP2) was 19% and the percent of molecules as tetramers (GluA1-TARP2) was 2%. The percent of molecules as trimers (GluA1-TARP2) was 18%.
